Experimental findings from patent publication US20210002623 are described below.

Series [1] concerns the target T1, peptide YFLMNENRYTSWNSE
T1 chain: YFLMNENRYTSWNSE

In series [2] the target is T2, H-Trp-Phe-Tyr-Ser(PO3H2)-Pro-Arg-pNA.
T2 chain: WFYSPR

B1: PhTET2 (leucyl aminopeptidase of Pyrococcus horikoshii) (protein)
chain: MEVRNMVDYELLKKVVEAPGVSGYEFLGIRDVVIEEIKDYVDEVKVDKLGNVIAHKKGEGPKVMIAAHMDQIGLMVTHIEKNGFLRVAPIGGVDPKTLIAQRFKVWIDKGKFIYGVGASVPPHIQKPEDRKKAPDWDQIFIDIGAESKEEAEDMGVKIGTVITWDGRLERLGKHRFVSIAFDDRIAVYTILEVAKQLKDAKADVYFVATVQEEVGLRGARTSAFGIEPDYGFAIDVTIAADIPGTPEHKQVTHLGKGTAIKIMDRSVICHPTIVRWLEELAKKHEIPYQLEILLGGGTDAGAIHLTKAGVPTGALSVPARYIHSNTEVVDERDVDATVELMTKALENIHELKI
As to B1, the “time necessary to hydrolyse 50% of the peptide, at 40 °C” value in series [1] is 0.5 h for PhTET2 compared to 3,9 h for MjTET at 40 °C.

B2: MjTET (TET aminopeptidase of Methanocaldococcus jannaschii, product of gene MJ0555) (protein)
chain: MSVVEYLKKLSKLHGISGREDSVREFMKKELEKYCDSVEIDNFGNLIAKRGNKGKKIMIAAHMDEIGLMVKYIDDNGFLKFTKIGGIYDPTILNQKVVVHGSKGDLIGVLGSKPPHRMKEEEKTKIIKYEDMFIDIGAESREEAIEMGVNIGTWVSFLSEVYDLGKNRLTGKAFDDRVGCAVLLEVMKRLSEEDIDCQVYAVGTVQEEVGLKGARVSAFKINPDVAIALDVTIAGDHPGIKKEDAPVDLGKGPVVGIVDASGRGLIAHPKVLDMIKAVSEKYKIDVQWEVGEGGTTDATAIHLTREGIPTGVISVPARYIHTPVEVIDKRDLEKTVELVYNCIKEVNNFF
Take B2: the “peptide hydrolysis followed by reverse phase HPLC” value in series [2] is “After 5 minutes, the original peptide substrate was almost hydrolyzed and four peptide products were detected”. In series [1], this protein had a time necessary to hydrolyse 50% of the peptide, at 20 °C of 75 h; a time necessary to hydrolyse 50% of the peptide, at 30 °C of 55 h; a time necessary to hydrolyse 50% of the peptide, at 40 °C of 3.9 h; a time necessary to hydrolyse 50% of the peptide, at 50 °C of 1.3 h. Besides, in series [1], the time necessary to hydrolyse 50% of the peptide, at 60 °C worked out at 1 h; the time necessary to hydrolyse 50% of the peptide, at 70 °C stood at 0.6 h; the time necessary to hydrolyse 50% of the peptide, at 80 °C worked out at 0.25 h.
